In patent publication US20220387557A1 (OXFORD UNIVERSITY INNOVATION, published 2022):

Key:
[1] = target: T1, Fc tagged human TNFR2 (Sino Biological) (human, UniProt P20333 23-257); experiment: SPR, Biacore T200 single cycle kinetics, receptor-Fc captured on Protein A chip, TNF 1.67-15 nM
T1 construct: Bought reagent; also called hTNFR2; hTNFR2-Fc; not shown: Fc tag of the bought protein
T1 sequence (looked up): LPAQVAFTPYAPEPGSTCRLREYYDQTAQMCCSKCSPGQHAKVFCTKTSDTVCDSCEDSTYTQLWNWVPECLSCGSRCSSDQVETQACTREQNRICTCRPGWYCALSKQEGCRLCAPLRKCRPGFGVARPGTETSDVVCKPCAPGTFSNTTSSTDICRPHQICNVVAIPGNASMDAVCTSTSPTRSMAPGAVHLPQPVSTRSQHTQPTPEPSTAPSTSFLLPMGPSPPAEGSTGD
Procedure: (§1) Single cycle kinetic analysis was performed using a Biacore T200 (serial no. 1909913) running Biacore T200 Evaluation Software V2.0.1 (Uppsala, Sweden). All experiments were run at 25° C. with HBS-P+ running buffer (pH 7.4) (GE Healthcare, Little Chalfont, UK).
(§2) Due to the limit in the number of available flow cells for analysis (three Fc per analysis, Fc2, Fc3 and Fc4, with Fc1 always being used as blank reference for non-specific subtraction), receptor binding was assessed in two separate overlapping runs using either: hTNFR1 (Fc2), hTNFR2 (Fc3) and mTNFR1 (Fc4), or; hTNFR1 (Fc2), […] and mTNFR2 (Fc4). Receptors were diluted in running buffer to a concentration of ˜4 μg/mL and at the start of each cycle loaded onto Fc2, Fc3 and Fc4 of a Protein A chip (GE Healthcare, Little Chalfont, UK) at a flow rate of 10 μL/min to give an RU of 40-100. The surface was then allowed to stabilise. Single cycle kinetic data was obtained at a flow rate of 45 μL/min. […] The association phase for the three injections of increasing concentrations of TNF was monitored for 240 seconds and a single dissociation phase was measured for 2700 seconds following the last injection of TNF. Regeneration of the Protein A surface was conducted using 10 mM glycine-HCl pH 1.5. The signal from the reference channel Fc1 (no receptor) was subtracted from that of Fc2, Fc3 and Fc4 to correct for differences in non-specific binding to a reference surface.

[2] = target: T2, Fc tagged mouse TNFR1 (Sino Biological) (mouse, UniProt P25118 22-212, limits assumed); experiment: as above
T2 construct: Bought reagent; also called mTNFR1; mTNFR1-Fc; not shown: Fc tag of the bought protein
T2 sequence (looked up): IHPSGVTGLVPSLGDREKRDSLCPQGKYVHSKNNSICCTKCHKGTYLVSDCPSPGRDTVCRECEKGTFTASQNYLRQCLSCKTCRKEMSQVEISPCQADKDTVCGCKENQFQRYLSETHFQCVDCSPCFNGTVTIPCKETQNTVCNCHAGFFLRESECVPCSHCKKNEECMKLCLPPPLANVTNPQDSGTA
Procedure: as §1, §2

[3] = target: T3, Fc tagged human TNFR1 (Sino Biological) (human, UniProt P19438 22-211, limits assumed); experiment: as above
T3 construct: Bought reagent; also called hTNFR1; hTNFR1-Fc; not shown: Fc tag of the bought protein
T3 sequence (looked up): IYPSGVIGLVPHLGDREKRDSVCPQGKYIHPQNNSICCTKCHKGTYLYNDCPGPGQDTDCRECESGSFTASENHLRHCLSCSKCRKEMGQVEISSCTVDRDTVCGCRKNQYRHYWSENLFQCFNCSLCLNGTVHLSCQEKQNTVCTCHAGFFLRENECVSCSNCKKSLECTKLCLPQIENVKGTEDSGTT
Procedure: as §1, §2

[4] = target: T1, Fc tagged human TNFR2 (Sino Biological); experiment: SPR, Biacore single cycle kinetics, stability study, after 1 year at -20° C.
Procedure: as §2
(§3) At day zero (prior to freezing) and following thawing on ice after 3 months and 1 year the following assays were performed: [0341] SDS-PAGE [0342] OD280 nm [0343] Single cycle Biacore for binding to hTNFR1, hTNFR2 and mTNFR1

[5] = target: T3, Fc tagged human TNFR1 (Sino Biological); experiment: as above
Procedure: as §2, §3

[6] = target: T1, Fc tagged human TNFR2 (Sino Biological); experiment: SPR, Biacore single cycle kinetics, stability study, before freezing (t=0)
Procedure: as §2, §3

[7] = target: T2, Fc tagged mouse TNFR1 (Sino Biological); experiment: as above
Procedure: as §2, §3

[8] = target: T3, Fc tagged human TNFR1 (Sino Biological); experiment: as above
Procedure: as §2, §3

[9] = target: T1, Fc tagged human TNFR2 (Sino Biological); experiment: SPR, Biacore single cycle kinetics, stability study, after 1 year at -80° C.
Procedure: as §2, §3

[10] = target: T2, Fc tagged mouse TNFR1 (Sino Biological); experiment: as above
Procedure: as §2, §3

[11] = target: T3, Fc tagged human TNFR1 (Sino Biological); experiment: as above
Procedure: as §2, §3

[12] = target: T4, Fc tagged mouse TNFR2 (Sino Biological) (mouse, UniProt P25119 23-258); experiment: SPR (Biacore T200) single cycle kinetics, Fc-tagged receptor captured on Protein A chip, TNF protein as analyte at 1.67-15 nM
T4 construct: Bought reagent; also called mTNFR2; mTNF2; not shown: Fc tag of the bought protein
T4 sequence (looked up): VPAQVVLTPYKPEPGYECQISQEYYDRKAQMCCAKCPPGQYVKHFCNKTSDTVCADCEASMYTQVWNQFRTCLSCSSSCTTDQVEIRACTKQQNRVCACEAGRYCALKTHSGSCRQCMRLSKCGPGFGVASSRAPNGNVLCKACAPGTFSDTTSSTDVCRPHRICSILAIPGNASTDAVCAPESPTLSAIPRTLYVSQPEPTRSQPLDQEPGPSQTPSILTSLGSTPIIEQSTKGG
Procedure: as §1, §2
Controls were used to ensure the integrity of the receptors during the Biacore run.

Kd [1]: 0.315 nM
Kd [2]: 0.0256 nM
Kd [3]: 0.0164 nM
Kd [4]: 0.21 nM
Kd [5]: 0.039 nM
Kd [6]: 0.198 nM
Kd [7]: 0.0624 nM
Kd [8]: 0.0175 nM
Kd [9]: 0.349 nM
Kd [10]: 0.0864 nM
Kd [11]: 0.0407 nM
binding result [12]: no binding (tested: 15 nM)
B1: TNF mutein B2 (ligand)
chain: VRSSSRTPSDKPVAHVVANPQAEGQLQWLNRRANALLANGVELRDNQLVVPSEGLYLIYSQVLFKGQGCPSTHVLLTHTISRITASYSGKVNLLSAIKSPCQRETPEGAEAKPWYEPIYLGGVFQLEKGDRLSAEINRPDYLDFAESGQVYFGIIAL
notes: Human TNF mutein, TASYSG at positions 84-89; not shown: C-terminal FLAG tag and His6 tag from vector pANT65
